A short description of this data set: protein stability index of a GFP-peptide fusion (yeast GPS) (PSI 1-4); higher = more stable; sorted into four equal gates, so the index is relative within each strain. The essentials:
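Yeast carrying a pooled library were grown to mid-log phase in leucine-free medium. Each library plasmid expresses Cherry and has a tiled 17-residue yeast protein peptide fused downstream of GFP. Cells were sorted into four equal gates by GFP/Cherry ratio, and plasmids from each gate were PCR-amplified, Illumina-sequenced and assigned to strains by barcode. Summing, across gates, the read frequency times the gate number gave each peptide's protein stability index.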

± gives the uncertainty stated by the source.

In turn, NVAHRIKEDIKKQPSIL [SNF2] registered a protein stability index (doa10∆) of 2.9 ± 0.15, a protein stability index (pdr5∆) of 3.21 ± 0.14, a protein stability index (san1∆) of 3.05 ± 0.097 and a protein stability index (ubr1∆) of 3.19 ± 0.12.

As to NVDGNIKIVYALTTIKG [RPS18A], the protein stability index is, setting by setting: (pdr5∆) 1.49 ± 0.18; (ubr1∆) 1.23 ± 0.11.

Take NVDVCVMEIGKDAEYLR [PUP1]: the protein stability index by setting is: (doa10∆) 2.84 ± 0.068; (pdr5∆) 2.73 ± 0.063; (san1∆) 2.7 ± 0.066; (ubr1∆) 2.39 ± 0.051.

With NVFTPEISSQIEILVKD [RRI2], the protein stability index is, setting by setting: (doa10∆) 1.65 ± 0.1; (pdr5∆) 2.02 ± 0.12; (san1∆) 2.65 ± 0.15; (ubr1∆) 1.3 ± 0.066.

Take NVGDNNSTASSSNISPE [ARP7]: the protein stability index was determined as 2.83 ± 0.089 (doa10∆), 3.11 ± 0.062 (pdr5∆), 3.04 ± 0.055 (san1∆) and 3.08 ± 0.045 (ubr1∆).

NVHGSLEPFLLMLEDTD [BRR2]: the protein stability index reads like this: (doa10∆) 2.47 ± 0.077; (pdr5∆) 2.63 ± 0.088; (san1∆) 2.87 ± 0.11; (ubr1∆) 2.94 ± 0.059.

With NVKTSVSQLYRISEKSV [RPO31], the protein stability index came out at 3.04 ± 0.11 (doa10∆), 3.22 ± 0.1 (pdr5∆), 3.12 ± 0.076 (san1∆) and 3.16 ± 0.083 (ubr1∆).

In the case of NVLVTMPVAPTMEVKSF [YMR129W/POM152], the protein stability index runs as follows: (doa10∆) 1.54 ± 0.068; (pdr5∆) 1.62 ± 0.11; (san1∆) 1.95 ± 0.11; (ubr1∆) 1.46 ± 0.068.

Where the note is “doa10∆”, NVRALYMRLWEINETEF [RMP1] displayed a protein stability index of 3 ± 0.24.

The sequence NVSFVLPDEKSDAMSID [YCG1] yielded a protein stability index (doa10∆) of 3.31 ± 0.072, a protein stability index (pdr5∆) of 3.3 ± 0.051, a protein stability index (san1∆) of 3.25 ± 0.052 and a protein stability index (ubr1∆) of 3.21 ± 0.067.

In turn, NVTFGSKKDPRILKNVS [YMR153W/NUP53] gave a protein stability index (doa10∆) of 2.81 ± 0.053, a protein stability index (pdr5∆) of 2.69 ± 0.056, a protein stability index (san1∆) of 2.81 ± 0.045 and a protein stability index (ubr1∆) of 2.67 ± 0.035.

For NVTSSGDHNKLRSTIAN [YML103C/NUP188], the protein stability index was determined as 2.43 ± 0.051 (doa10∆), 2.48 ± 0.062 (pdr5∆), 2.35 ± 0.071 (san1∆) and 2.02 ± 0.033 (ubr1∆).

NWIKPSDSEIPPLLVYK [PRP8] returned a protein stability index (doa10∆) of 2.16 ± 0.065, a protein stability index (pdr5∆) of 2.24 ± 0.056, a protein stability index (san1∆) of 2.21 ± 0.075 and a protein stability index (ubr1∆) of 2.12 ± 0.063.

As to NWLSIFNDFSNIKTSEW [REC8], the protein stability index was 2.67 ± 0.082 (doa10∆), 2.95 ± 0.061 (pdr5∆), 2.94 ± 0.091 (san1∆) and 2.91 ± 0.085 (ubr1∆).

For the sequence NWYKSKKKAFTKYSAKY [RPL3], the protein stability index came out at 3.23 ± 0.16 (doa10∆), 3.25 ± 0.1 (pdr5∆), 3.07 ± 0.079 (san1∆) and 3.01 ± 0.045 (ubr1∆).

As for NYDIITASSLAHDYNND [YML103C/NUP188], the protein stability index by setting is: (doa10∆) 2.64 ± 0.063; (pdr5∆) 2.05 ± 0.075; (san1∆) 2.61 ± 0.087; (ubr1∆) 2.33 ± 0.056.

NYHPNASITPYKLVNKN [RPN4] returned a protein stability index (doa10∆) of 1.84 ± 0.063, a protein stability index (pdr5∆) of 2.38 ± 0.078, a protein stability index (san1∆) of 2.59 ± 0.083 and a protein stability index (ubr1∆) of 2.05 ± 0.068.

On to PAGFTHKLSNWLFGWND [YDL088C/ASM4], for which the protein stability index is, setting by setting: (doa10∆) 2.86 ± 0.073; (pdr5∆) 3.07 ± 0.067; (san1∆) 3.33 ± 0.053; (ubr1∆) 2.96 ± 0.043.

As for PAGHAGNPTNISSPIVA [YDL088C/ASM4], the protein stability index was found to be 2.52 ± 0.068 (doa10∆), 2.71 ± 0.065 (pdr5∆), 2.67 ± 0.064 (san1∆) and 3.02 ± 0.046 (ubr1∆).

In the case of PAIPPVIDLEKIKFDES [BRR2], the protein stability index runs as follows: (doa10∆) 2.85 ± 0.093; (pdr5∆) 2.84 ± 0.093; (san1∆) 2.67 ± 0.086; (ubr1∆) 2.77 ± 0.082.

Turning to PANHLQSDFCLSWCPSR [YGL100W/SEH1], the protein stability index reads like this: (doa10∆) 1.8 ± 0.18; (pdr5∆) 2.05 ± 0.12; (san1∆) 2.43 ± 0.16; (ubr1∆) 2.4 ± 0.06.

Take PCVEDGFVIQDRETALD [RPB2]: the protein stability index turned out to be 3.17 ± 0.088 (doa10∆), 3.18 ± 0.11 (pdr5∆), 3.16 ± 0.19 (san1∆) and 3.2 ± 0.078 (ubr1∆).

PDAQNELPKFILSDSPL [DIS3]: the protein stability index runs as follows: (doa10∆) 2.87 ± 0.048; (pdr5∆) 3.03 ± 0.063; (san1∆) 2.87 ± 0.044; (ubr1∆) 2.92 ± 0.079.

As to PDCKIKIAHGTTTLAFR [PRE2], the protein stability index runs as follows: (doa10∆) 2.64 ± 0.077; (pdr5∆) 2.72 ± 0.056; (san1∆) 2.65 ± 0.066; (ubr1∆) 2.71 ± 0.064.

Consider PDDEKFTDENTIVLSLN [RPC40], for which the protein stability index by setting is: (doa10∆) 3.46 ± 0.13; (pdr5∆) 3.6 ± 0.085; (san1∆) 3 ± 0.16; (ubr1∆) 3.47 ± 0.087.

With PDIADIPRTFRTPVPST [SNF5], the protein stability index was found to be 2.12 ± 0.093 (doa10∆), 1.96 ± 0.059 (pdr5∆), 2.04 ± 0.064 (san1∆) and 2.01 ± 0.072 (ubr1∆).

Consider PDKDYLLSIPISCPLIG [FAS1], for which the protein stability index runs as follows: (doa10∆) 1.28 ± 0.19; (pdr5∆) 1.64 ± 0.13; (san1∆) 1.25 ± 0.19; (ubr1∆) 1.07 ± 0.077.

Turning to PDLQFIVISLKNTMFEK [SMC1], the protein stability index runs as follows: (doa10∆) 2.83 ± 0.082; (pdr5∆) 2.68 ± 0.071; (san1∆) 3.01 ± 0.05; (ubr1∆) 2.77 ± 0.045.

As for PDPNFENSIGYNNRKCW [PRP8], the protein stability index (doa10∆) worked out at 3.02 ± 0.098, the protein stability index (pdr5∆) turned out to be 2.97 ± 0.1, the protein stability index (san1∆) worked out at 2.98 ± 0.21 and the protein stability index (ubr1∆) amounted to 3.11 ± 0.12.

Turning to PDRQSMDSRVAHGNILI [SRB5], the protein stability index by setting is: (doa10∆) 3.14 ± 0.09; (pdr5∆) 3.12 ± 0.064; (san1∆) 3.02 ± 0.058; (ubr1∆) 3.14 ± 0.05.

With PEDALVNDFSDITSDQL [SMC3], the protein stability index (doa10∆) came out at 3.32 ± 0.076, the protein stability index (pdr5∆) amounted to 2.85 ± 0.091, the protein stability index (san1∆) was determined as 3.15 ± 0.081 and the protein stability index (ubr1∆) worked out at 3.31 ± 0.062.

For the sequence PEEEAAIRRENEWAEDR [SKP1], the protein stability index by setting is: (doa10∆) 3.09 ± 0.1; (pdr5∆) 3.15 ± 0.082; (san1∆) 3.34 ± 0.05; (ubr1∆) 3.28 ± 0.1.

With PEHLRKIINTHSDMASK [PRP8], the protein stability index by setting is: (doa10∆) 2.01 ± 0.053; (pdr5∆) 2.04 ± 0.051; (san1∆) 2.15 ± 0.097; (ubr1∆) 2.37 ± 0.039.

As for PELAMALRLSMEEEQQR [RPN10], the protein stability index by setting is: (doa10∆) 3.15 ± 0.14; (pdr5∆) 3.09 ± 0.061; (ubr1∆) 3.14 ± 0.08.

Turning to PELGDKFSSRHGQKGVC [RET1], the protein stability index was found to be 3.26 ± 0.12 (doa10∆), 3.42 ± 0.12 (pdr5∆), 2.99 ± 0.14 (san1∆) and 3.09 ± 0.1 (ubr1∆).

With PEMSNLYRLSTPLRDEV [PRP8], the protein stability index came to 2.76 ± 0.067 (doa10∆), 2.76 ± 0.047 (pdr5∆), 2.56 ± 0.044 (san1∆) and 2.75 ± 0.06 (ubr1∆).

For PESIRQKKARTILQHLS [PRP8], the protein stability index was 1.21 ± 0.099 (doa10∆), 1.53 ± 0.093 (pdr5∆), 1.12 ± 0.21 (san1∆) and 1.21 ± 0.24 (ubr1∆).

Regarding PEYGRIIASASYDKTVK [YGL100W/SEH1], the protein stability index runs as follows: (doa10∆) 2.27 ± 0.079; (pdr5∆) 2.28 ± 0.082; (san1∆) 3.03 ± 0.087; (ubr1∆) 2.11 ± 0.056.

For the sequence PFDDDEPPLSYEQHIEN [PRP8], the protein stability index came out at 2.42 ± 0.058 (doa10∆), 2.86 ± 0.092 (pdr5∆), 3.06 ± 0.07 (san1∆) and 2.31 ± 0.053 (ubr1∆).

Source of the values: the supplement of paper PMC9732359.
